Measurements as given in patent WO2005092925A2.

Assays:
Test in all cases: AlphaScreen
human FcRn (human) = human FcRn (human) (UniProt P55899)
human FcγRI (human) = human FcγRI (human) (UniProt P12314)
[1] = molecular target: human FcγRIIa H131 (human) (UniProt P12318)
human FcγRIIb (human) = human FcγRIIb (human) (UniProt P31994)
human FcγRIIc (human) = human FcγRIIc (human) (UniProt P31995)
[2] = molecular target: human V158 FcγRIIIa, extracellular region fused with GST (human) (UniProt P08637)
Sequence of UniProt P08637 (P08637 17-208 F176V): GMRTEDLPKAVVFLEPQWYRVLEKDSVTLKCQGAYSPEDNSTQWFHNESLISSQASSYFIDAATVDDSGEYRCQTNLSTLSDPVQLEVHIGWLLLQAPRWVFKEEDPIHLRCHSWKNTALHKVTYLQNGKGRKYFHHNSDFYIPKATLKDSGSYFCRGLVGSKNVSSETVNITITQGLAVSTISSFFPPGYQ

Sequence of UniProt P31994 (P31994 43-217 limits assumed): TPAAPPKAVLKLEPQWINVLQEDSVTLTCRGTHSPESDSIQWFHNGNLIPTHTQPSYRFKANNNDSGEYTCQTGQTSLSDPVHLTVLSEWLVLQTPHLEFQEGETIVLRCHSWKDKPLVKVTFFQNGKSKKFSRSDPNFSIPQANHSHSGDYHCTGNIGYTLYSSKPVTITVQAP
Sequence of UniProt P31995 (P31995 43-217 limits assumed): as the sequence (P31994 43-217 limits assumed) above
Sequence of UniProt P12314 (P12314 16-288 limits assumed): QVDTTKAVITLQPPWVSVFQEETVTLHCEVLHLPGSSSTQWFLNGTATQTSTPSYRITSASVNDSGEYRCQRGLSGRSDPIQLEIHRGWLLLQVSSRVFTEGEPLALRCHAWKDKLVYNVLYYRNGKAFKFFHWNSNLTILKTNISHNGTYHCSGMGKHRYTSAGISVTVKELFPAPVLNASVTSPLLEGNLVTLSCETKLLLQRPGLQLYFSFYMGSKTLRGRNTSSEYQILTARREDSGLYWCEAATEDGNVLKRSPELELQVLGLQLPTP
Sequence of UniProt P55899 (P55899 24-297 limits assumed): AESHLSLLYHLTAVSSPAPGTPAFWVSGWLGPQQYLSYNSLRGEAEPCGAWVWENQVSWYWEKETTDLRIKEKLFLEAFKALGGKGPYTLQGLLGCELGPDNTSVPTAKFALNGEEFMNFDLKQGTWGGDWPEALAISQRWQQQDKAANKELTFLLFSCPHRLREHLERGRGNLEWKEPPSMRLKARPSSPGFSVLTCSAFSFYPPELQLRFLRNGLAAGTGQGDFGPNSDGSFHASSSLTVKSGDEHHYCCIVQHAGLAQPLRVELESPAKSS
Sequence of UniProt P12318 (P12318 36-218 limits assumed): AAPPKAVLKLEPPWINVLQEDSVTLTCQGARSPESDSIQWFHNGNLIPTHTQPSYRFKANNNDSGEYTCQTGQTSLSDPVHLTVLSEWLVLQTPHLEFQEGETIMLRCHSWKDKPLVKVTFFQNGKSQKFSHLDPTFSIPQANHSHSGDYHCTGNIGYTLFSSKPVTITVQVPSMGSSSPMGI

Row | Fold WT (human FcRn (human)) [fold] | Fold WT (human FcγRI (human)) [fold] | Fold WT [1] [fold] | Fold WT (human FcγRIIb (human)) [fold] | Fold WT (human FcγRIIc (human)) [fold] | Fold WT [2] [fold] | Substance
1 | 5.66 | 4.53 | 4.32 | 3.5 | 17.8 | 65.6 | Campath D221K (antibody)
2 | 0.93 | 0.1 | 1.23 | 0.6 | 0.71 | 0.46 | Campath E233A (antibody)
3 | 2.09 | 0.36 | 1.21 | 0.94 | 0.74 | 1.21 | Campath E233G (antibody)
4 | 0.95 | 0.3 | 1.09 | 1.69 | 1.8 | 0.88 | Campath E233I (antibody)
5 | 1.13 | 0.29 | 0.67 | 0.49 | 0.85 | 0.7 | Campath E233M (antibody)
6 | 0.91 | 0.25 | 0.71 | 0.37 | 0.61 | 0.5 | Campath E233V (antibody)
7 | 1.6 |  | 0.34 | 0.79 | 0.4 | 0.19 | Campath G236M (antibody)
8 | 1.56 |  | 1.89 | 0.95 | 0.48 |  | Campath G236T (antibody)
9 | 1.35 | 0.14 | 1.52 | 0.82 | 0.47 | 0.27 | Campath G236V (antibody)
10 | 1.52 | 0.78 | 2.13 | 0.7 | 0.29 | 0.29 | Campath G236W (antibody)
11 | 0.64 | 1.77 | 1.26 | 1.04 | 1.22 | 1.51 | Campath K222E (antibody)
12 | 2.54 | 0.7 | 3.26 | 3.62 | 3.48 | 2.17 | Campath L234G (antibody)
13 | 0.62 | 0.43 | 0.65 | 1.42 | 1.09 | 0.53 | Campath L234K (antibody)
14 | 0.55 | 0.64 | 0.89 | 0.9 | 0.65 | 0.49 | Campath L234M (antibody)
15 | 0.97 | 0.34 | 0.62 | 0.84 | 0.78 | 0.41 | Campath L235A (antibody)
16 | 0.96 | 0.42 | 0.56 | 1.28 | 1.34 | 0.63 | Campath L235K (antibody)
17 | 0.53 | 0.35 | 0.71 | 1.93 | 1.15 | 0.62 | Campath L235R (antibody)
18 | 1.55 | 1.91 | 1.31 | 1.14 | 1.13 | 1.28 | Campath P228K (antibody)
19 | 0.76 | 2.97 | 0.8 | 1.59 | 0.99 | 1.51 | Campath P232E (antibody)

Continued, substance first:

Row | Substance | Fold WT (human FcRn (human)) [fold] | Fold WT (human FcγRI (human)) [fold] | Fold WT [1] [fold] | Fold WT (human FcγRIIb (human)) [fold] | Fold WT (human FcγRIIc (human)) [fold] | Fold WT [2] [fold]
20 | Campath A231K (antibody) | 0.52 | 0.5 | 0.62 | 0.41 | 0.58 | 0.58
21 | Campath E233F (antibody) | 0.9 | 0.23 | 0.64 | 0.73 | 0.84 | 0.58
22 | Campath E233H (antibody) | 0.99 | 0.17 | 0.74 | 0.58 | 0.78 | 0.32
23 | Campath E233L (antibody) | 0.6 | 0.53 | 0.55 | 0.26 | 0.54 | 0.52
24 | Campath E233N (antibody) | 0.74 | 0.16 | 0.5 | 0.34 | 0.46 | 0.48
25 | Campath E233Q (antibody) | 0.61 | 0.19 | 0.52 | 0.27 | 0.39 | 0.51
26 | Campath E233R (antibody) | 1.05 | 0.14 | 0.75 | 0.36 | 0.6 | 0.35
27 | Campath E233S (antibody) | 1.1 | 0.17 | 0.62 | 0.31 | 0.37 | 0.36
28 | Campath E233T (antibody) | 1.19 | 0.15 | 1.28 | 0.78 | 0.83 | 0.42
29 | Campath E233W (antibody) | 1.64 | 0.28 | 0.86 | 0.82 | 0.7 | 0.35
30 | Campath G236A (antibody) | 1.75 | 0.48 | 45 | 1.05 | 1.45 | 0.65
31 | Campath G236D (antibody) | 1.53 | 0.15 | 5.01 | 3.77 | 4.74 | 
32 | Campath G236P (antibody) | 1.41 | 0.15 | 0.11 | 0.24 | 0.15 | 0.1
33 | Campath G236S (antibody) | 1.77 | 0.55 | 22.7 | 2.77 | 3.68 | 5.77
34 | Campath K222Y (antibody) | 0.66 | 0.77 | 0.48 | 0.5 | 0.34 | 0.34
35 | Campath L234A (antibody) | 0.58 | 0.44 | 0.8 | 0.85 | 0.62 | 0.35
36 | Campath L234R (antibody) | 1.19 | 0.38 | 0.87 | 1.49 | 1.52 | 0.73
37 | Campath L235E (antibody) | 0.78 | 0.34 | 0.63 | 0.83 | 0.8 | 1.06
38 | Campath L235M (antibody) | 0.69 | 0.38 | 0.79 | 0.89 | 0.64 | 0.46
39 | Campath L235P (antibody) | 0.86 | 0.13 | 1.16 | 1.16 | 0.89 | 0.78
40 | Campath L235W (antibody) | 0.46 | 0.11 | 0.9 | 0.77 | 0.5 | 0.32
41 | Campath P228G (antibody) | 1.77 | 1 | 2.6 | 0.96 | 0.54 | 0.98
42 | Campath P228Y (antibody) | 1.45 | 1.15 | 1.68 | 1.59 | 1.61 | 0.75
43 | Campath P230E (antibody) | 1.01 | 2.07 | 1.25 | 2.34 | 1.47 | 
44 | Campath P230G (antibody) | 1.16 | 1.04 | 0.99 | 1.13 | 0.75 | 0.48
45 | Campath P230Y (antibody) | 0.65 | 0.44 | 0.4 | 0.85 | 1.22 | 0.56
46 | Campath P232K (antibody) | 1.56 | 0.7 | 0.87 | 0.85 | 0.61 | 0.77
47 | Campath P232Y (antibody) | 0.68 | 1.91 | 1.51 | 1.49 | 0.96 | 0.99
